Test [1] has as its target HyNaC2/10/7 (Hydra magnipapillata).
Test [2] has as its target HyNaC2/11/5 (Hydra magnipapillata).
In test [3] the target is HyNaC2/3/5 (Hydra magnipapillata).
In test [4] the target is HyNaC2/3/6 (Hydra magnipapillata).
For test [5], the target named is HyNaC2/3/7 (Hydra magnipapillata).
Test [6] addresses HyNaC2/4/6 (Hydra magnipapillata).
The target in test [7] is HyNaC2/9/7 (Hydra magnipapillata).

For the substance Hydra-RFamide I (peptide), the EC50 of current activation by Hydra-RFamide I (two-electrode voltage clamp, Xenopus oocytes injected with EGTA); saturation not reached in test [1] was > 30000 nM. In addition, the EC50 of current activation by Hydra-RFamide I (two-electrode voltage clamp, Xenopus oocytes injected with EGTA) in test [2] worked out at 13800 nM; in test [3] it was 3480 nM; in test [4], 290 nM; in test [5], 190 nM; in test [6] it was 700 nM; in test [7] it was 40 nM.

(Values after publication PMC4212090, “The comprehensive analysis of DEG/ENaC subunits in Hydra reveals a large variety of peptide-gated channels, potentially involved in neuromuscular transmission” (BMC Biology, 2014).)
